What all share (assay): cell_activity; CHO iGFFP reporter
The target in series [1] is T1, LOX 3-4m.524 (artificial (I-CreI derived)).
T1 chain: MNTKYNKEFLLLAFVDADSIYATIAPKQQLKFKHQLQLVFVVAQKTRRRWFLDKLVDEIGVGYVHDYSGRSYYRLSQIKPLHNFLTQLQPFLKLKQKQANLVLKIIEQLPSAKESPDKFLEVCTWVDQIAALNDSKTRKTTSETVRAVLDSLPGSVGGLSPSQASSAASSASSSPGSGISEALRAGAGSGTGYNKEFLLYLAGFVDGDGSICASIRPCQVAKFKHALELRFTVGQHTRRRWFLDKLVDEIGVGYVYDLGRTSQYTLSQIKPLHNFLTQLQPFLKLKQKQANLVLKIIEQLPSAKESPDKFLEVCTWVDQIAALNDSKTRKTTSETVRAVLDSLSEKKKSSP
An excerpt:
(§1) A CHO cell reporter system (see WO/2012/167192, FIG. 3) was used to determine whether the engineered meganucleases generated in these studies could recognize and cleave the modified LOX 3-4 recognition sequences in Table 87. To perform the assay, a pair of CHO cell reporter lines were produced, which carried a non-functional Green Fluorescent Protein (GFP) gene expression cassette integrated into the genome of the cell. The GFP gene in each cell line was interrupted by a pair of recognition sequences such that intracellular cleavage of either recognition sequence by a meganuclease would stimulate a homologous recombination event resulting in a functional GFP gene. In both cell lines, one of the recognition sequences was derived from the LOX 3-4 recognition sequence (i.e., those sequences disclosed in Table 87), and the second recognition sequence was specifically recognized by a control meganuclease called “CHO 23/24.” CHO reporter cells comprising a recognition sequence derived from the LOX 3-4 recognition sequence and the CHO 23/24 recognition sequence are referred to herein as “test cells.”
(§2) Novel engineered meganucleases derived from the LOX 3-4x.109 meganuclease were prepared by making amino acid substitutions at one or more positions in the first subunit and one or more positions in the second subunit. The N-terminal subunit recognizes the reverse complement of the AG portion of the four base pair center sequence, which is CT, and the C-terminal subunit recognizes the GC portion of the […] center sequence. These engineered meganucleases were then evaluated for cleavage of the LOX 3-4 recognition sequence modified to have a GCAG center sequence (SEQ ID NO: 326) in the CHO reporter assay according to Example 1. The substitutions in each subunit are provided in Tables 180 and 181, respectively.

Series [2] concerns the target T2, LOX 3-4m.509 (artificial (I-CreI derived)).
T2 chain: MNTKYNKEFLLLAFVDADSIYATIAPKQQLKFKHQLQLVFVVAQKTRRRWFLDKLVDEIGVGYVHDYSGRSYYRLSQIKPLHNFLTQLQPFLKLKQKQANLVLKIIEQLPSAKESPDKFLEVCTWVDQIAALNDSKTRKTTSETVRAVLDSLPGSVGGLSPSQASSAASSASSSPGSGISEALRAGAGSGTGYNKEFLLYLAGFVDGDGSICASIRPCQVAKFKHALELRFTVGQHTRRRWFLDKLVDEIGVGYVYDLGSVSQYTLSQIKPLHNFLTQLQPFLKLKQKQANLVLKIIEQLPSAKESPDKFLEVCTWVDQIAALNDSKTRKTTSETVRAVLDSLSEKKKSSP
Excerpt: as §1, §2

Series [3] deals with T3, LOX 3-4m.494 (artificial (I-CreI derived)).
T3 chain: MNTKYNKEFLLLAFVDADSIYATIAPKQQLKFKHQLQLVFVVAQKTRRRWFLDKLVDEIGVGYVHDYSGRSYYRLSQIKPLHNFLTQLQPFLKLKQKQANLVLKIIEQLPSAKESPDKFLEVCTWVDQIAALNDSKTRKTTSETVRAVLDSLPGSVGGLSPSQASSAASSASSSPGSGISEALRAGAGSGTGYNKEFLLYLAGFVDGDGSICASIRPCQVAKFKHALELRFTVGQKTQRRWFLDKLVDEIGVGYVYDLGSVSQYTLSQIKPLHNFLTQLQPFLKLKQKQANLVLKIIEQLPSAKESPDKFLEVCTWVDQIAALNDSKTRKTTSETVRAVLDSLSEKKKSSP
Excerpt: as §1, §2

For series [4], the target named is T4, LOX 3-4m.949 (artificial (I-CreI derived)).
T4 chain: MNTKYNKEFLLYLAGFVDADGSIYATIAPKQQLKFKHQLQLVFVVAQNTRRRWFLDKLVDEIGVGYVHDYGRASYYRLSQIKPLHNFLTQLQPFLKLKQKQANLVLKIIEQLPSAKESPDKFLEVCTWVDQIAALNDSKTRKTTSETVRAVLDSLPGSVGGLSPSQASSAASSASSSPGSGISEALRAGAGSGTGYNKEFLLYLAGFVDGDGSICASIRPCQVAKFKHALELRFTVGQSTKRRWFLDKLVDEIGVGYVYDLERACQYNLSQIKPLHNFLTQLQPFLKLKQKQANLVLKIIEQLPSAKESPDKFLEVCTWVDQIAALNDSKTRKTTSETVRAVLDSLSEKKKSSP
Excerpt: as §1
(§3) Novel engineered meganucleases derived from the LOX 3-4x.109 meganuclease were prepared by making amino acid substitutions at one or more positions in the first subunit and one or more positions in the second subunit. These engineered meganucleases were then evaluated for cleavage of the LOX 3-4 recognition sequence, which normally comprises an ACAT center sequence (SEQ ID NO: 44) in the CHO reporter assay according to Example 1.

Series [5] deals with T5, LOX 3-4m.893 (artificial (I-CreI derived)).
T5 chain: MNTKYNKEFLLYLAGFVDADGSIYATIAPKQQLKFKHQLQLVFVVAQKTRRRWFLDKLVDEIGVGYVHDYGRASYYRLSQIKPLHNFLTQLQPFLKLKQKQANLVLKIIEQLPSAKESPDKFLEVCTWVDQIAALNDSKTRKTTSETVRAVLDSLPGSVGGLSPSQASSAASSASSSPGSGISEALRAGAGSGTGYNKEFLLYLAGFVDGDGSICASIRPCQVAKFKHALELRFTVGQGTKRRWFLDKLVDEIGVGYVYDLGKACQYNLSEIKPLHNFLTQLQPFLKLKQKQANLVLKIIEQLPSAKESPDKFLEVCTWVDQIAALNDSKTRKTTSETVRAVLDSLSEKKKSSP
Excerpt: as §1, §3

Series [6] concerns the target T6, LOX 3-4m.925 (artificial (I-CreI derived)).
T6 chain: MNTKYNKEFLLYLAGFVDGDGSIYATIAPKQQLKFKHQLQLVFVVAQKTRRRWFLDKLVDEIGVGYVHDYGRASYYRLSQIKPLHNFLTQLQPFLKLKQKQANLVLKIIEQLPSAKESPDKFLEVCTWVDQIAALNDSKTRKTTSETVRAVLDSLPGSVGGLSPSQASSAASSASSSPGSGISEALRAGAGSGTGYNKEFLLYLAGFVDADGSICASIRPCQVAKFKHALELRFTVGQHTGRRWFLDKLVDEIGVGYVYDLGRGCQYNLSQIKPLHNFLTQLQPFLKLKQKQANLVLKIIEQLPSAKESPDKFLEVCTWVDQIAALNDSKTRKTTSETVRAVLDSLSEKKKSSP
Excerpt: as §1, §3

For series [7], the target named is T7, LOX 3-4m.869 (artificial (I-CreI derived)).
T7 chain: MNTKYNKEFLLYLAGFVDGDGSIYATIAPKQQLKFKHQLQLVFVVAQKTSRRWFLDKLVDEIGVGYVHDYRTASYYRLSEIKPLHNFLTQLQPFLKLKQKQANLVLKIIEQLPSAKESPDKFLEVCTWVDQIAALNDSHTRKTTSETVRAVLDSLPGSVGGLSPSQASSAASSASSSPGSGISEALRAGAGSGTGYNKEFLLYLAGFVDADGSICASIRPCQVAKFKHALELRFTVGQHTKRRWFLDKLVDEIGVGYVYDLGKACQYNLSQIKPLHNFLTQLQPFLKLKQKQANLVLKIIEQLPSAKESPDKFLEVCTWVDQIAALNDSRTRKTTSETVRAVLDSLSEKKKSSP
Excerpt: as §1, §3

The target in series [8] is T8, LOX 3-4m.1013 (artificial (I-CreI derived)).
T8 chain: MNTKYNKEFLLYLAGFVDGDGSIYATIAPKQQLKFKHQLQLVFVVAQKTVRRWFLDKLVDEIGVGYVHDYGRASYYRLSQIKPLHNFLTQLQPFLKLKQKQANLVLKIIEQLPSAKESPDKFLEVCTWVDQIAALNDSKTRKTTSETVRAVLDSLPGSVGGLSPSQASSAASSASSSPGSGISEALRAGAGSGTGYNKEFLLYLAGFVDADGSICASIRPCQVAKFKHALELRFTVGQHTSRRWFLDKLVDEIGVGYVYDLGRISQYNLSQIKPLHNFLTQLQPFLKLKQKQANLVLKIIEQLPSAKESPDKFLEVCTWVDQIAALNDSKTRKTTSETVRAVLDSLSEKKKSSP
Excerpt: as §1
(§4) Novel engineered meganucleases derived from the LOX 3-4x.109 meganuclease were prepared by making amino acid substitutions at one or more positions in the first subunit and one or more positions in the second subunit. These engineered meganucleases were then evaluated for cleavage of the LOX 3-4 recognition sequence modified to have an ACGA center sequence (SEQ ID NO: 68) in the CHO reporter assay according to Example 1.

The target of series [9] is T9, LOX 3-4m.956 (artificial (I-CreI derived)).
T9 chain: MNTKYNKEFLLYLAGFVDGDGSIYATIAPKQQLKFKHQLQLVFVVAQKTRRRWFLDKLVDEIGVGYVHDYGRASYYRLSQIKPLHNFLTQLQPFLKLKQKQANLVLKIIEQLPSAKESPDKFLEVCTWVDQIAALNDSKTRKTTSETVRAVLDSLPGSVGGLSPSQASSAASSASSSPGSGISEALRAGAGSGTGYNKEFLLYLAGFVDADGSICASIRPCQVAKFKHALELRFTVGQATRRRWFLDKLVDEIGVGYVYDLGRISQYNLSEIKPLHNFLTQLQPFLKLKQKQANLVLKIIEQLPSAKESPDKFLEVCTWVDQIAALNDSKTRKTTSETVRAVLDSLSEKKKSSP
Excerpt: as §1, §4

Series [10] deals with T10, LOX 3-4m.1044 (artificial (I-CreI derived)).
T10 chain: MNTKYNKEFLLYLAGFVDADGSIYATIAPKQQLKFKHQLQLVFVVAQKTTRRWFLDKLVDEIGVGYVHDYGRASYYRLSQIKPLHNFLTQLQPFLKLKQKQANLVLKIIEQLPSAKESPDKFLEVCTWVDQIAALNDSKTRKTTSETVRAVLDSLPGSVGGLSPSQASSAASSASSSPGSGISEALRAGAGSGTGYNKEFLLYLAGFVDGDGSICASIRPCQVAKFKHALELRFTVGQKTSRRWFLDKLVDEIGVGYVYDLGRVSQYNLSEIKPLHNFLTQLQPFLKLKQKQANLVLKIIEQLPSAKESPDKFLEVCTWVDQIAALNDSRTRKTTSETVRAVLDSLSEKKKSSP
Excerpt: as §1, §4

For series [11], the target named is T11, LOX 3-4m.1036 (artificial (I-CreI derived)).
T11 chain: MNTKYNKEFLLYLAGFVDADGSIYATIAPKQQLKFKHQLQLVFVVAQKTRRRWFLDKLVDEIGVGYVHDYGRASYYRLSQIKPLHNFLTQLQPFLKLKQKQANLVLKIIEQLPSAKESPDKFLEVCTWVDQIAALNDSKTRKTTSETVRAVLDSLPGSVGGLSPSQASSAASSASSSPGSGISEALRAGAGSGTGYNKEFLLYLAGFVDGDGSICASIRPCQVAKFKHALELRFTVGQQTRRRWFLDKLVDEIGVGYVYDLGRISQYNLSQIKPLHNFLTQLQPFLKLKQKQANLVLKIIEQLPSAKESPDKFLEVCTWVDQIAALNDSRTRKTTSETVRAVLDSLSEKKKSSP
Excerpt: as §1, §4

B1: LOX 3-4 GCAG (dsDNA)
DNA 1: GTATAGCATGCAGTATACGAAG
DNA 2: CTTCGTATACTGCATGCTATAC
For the molecule B1, the activity is 16.6 % GFP in series [1], 13.4 % GFP in [2] and 13.8 % GFP in [3].

B2: LOX 3-4 ACAT (native LOX 3-4 site, SEQ 6) (dsDNA)
DNA 1: GTATAGCATACATTATACGAAG
DNA 2: CTTCGTATAATGTATGCTATAC
With B2, the activity is 12.5 % GFP in [4], 13.1 % GFP in series [5], 12.2 % GFP in series [6] and 11.2 % GFP in series [7].

B3: LOX 3-4 ACGA (dsDNA)
DNA 1: GTATAGCATACGATATACGAAG
DNA 2: CTTCGTATATCGTATGCTATAC
B3: the activity was 1.7 % GFP in series [8], 4.7 % GFP in series [9], 5.8 % GFP in series [10] and 5 % GFP in [11].

Values taken from patent US20220195407, “OPTIMIZATION OF ENGINEERED MEGANUCLEASES FOR RECOGNITION SEQUENCES” (Precision BioSciences, Inc., published 2022).
